Reference: PMC3423576 (Journal of molecular biology, 2012)

Target: the molecule itself
Test: crystal structure

B1: CusB periplasmic membrane fusion protein (natural protein, E. coli, UniProt P77239 29-407, looked up)
chain: EPPAEKTSTAERKILFWYDPMYPNTRFDKPGKSPFMDMDLVPKYADEESSASGVRIDPTQTQNLGVKTATVTRGPLTFAQSFPANVSYNEYQYAIVQARAAGFIDKVYPLTVGDKVQKGTPLLDLTIPDWVEAQSEYLLLRETGGTATQTEGILERLRLAGMPEADIRRLIATQKIQTRFTLKAPIDGVITAFDLRAGMNIAKDNVVAKIQGMDPVWVTAAIPESIAWLVKDASQFTLTVPARPDKTLTIRKWTLLPGVDAATRTLQLRLEVDNADEALKPGMNAWLQLNTASEPMLLIPSQALIDTGSEQRVITVDADGRFVPKRVAVFQASQGVTALRSGLAEGEKVVSSGLFLIDSEANISGALERMRSESATHAH
stoichiometry N: 6
